Changes are numbered by the printed parent chain. Numbers in names are those of the source.
T1: soluble dimeric FcγRIIB (extracellular domain fused to hinge-CH2-CH3 of human IgG2) (human, UniProt P31994 43-217)
T1 construct: extracellular domain; also called FcRIIB; FcRIIB-Fc; not shown: human IgG2 hinge-CH2-CH3
T1 sequence (looked up): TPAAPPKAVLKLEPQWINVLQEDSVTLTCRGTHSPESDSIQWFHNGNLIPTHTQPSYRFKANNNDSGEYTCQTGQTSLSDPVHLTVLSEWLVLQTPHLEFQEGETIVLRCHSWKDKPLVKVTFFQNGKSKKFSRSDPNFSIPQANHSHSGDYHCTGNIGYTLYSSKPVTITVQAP

B1: IgG1 Fc mutant A231V, Q386H, V412M (antibody)
heavy: ASTKGPSVFPLAPSSKSTSGGTAALGCLVKDYFPEPVTVSWNSGALTSGVHTFPAVLQSSGLYSLSSVVTVPSSSLGTQTYICNVNHKPSNTKVDKKVEPKSCDKTHTCPPCPVPELLGGPSVFLFPPKPKDTLMISRTPEVTCVVVDVSHEDPEVKFNWYVDGVEVHNAKTKPREEQYNSTYRVVSVLTVLHQDWLNGKEYKCKVSNKALPAPIEKTISKAKGQPREPQVYTLPPSRDELTKNQVSLTCLVKGFYPSDIAVEWESNGHPENNYKTTPPVLDSDGSFFLYSKLTMDKSRWQQGNVFSCSVMHEALHNHYTQKSLSLSPGK
B2: IgG1 Fc mutant C229Y, A287T, V379M, P396L, L443V (antibody)
heavy: B1 heavy with C112Y, V114A, A170T, V262M, H269Q, P279L, M295V, L326V
B3: IgG1 Fc mutant K246E, V284M, V308A (antibody)
heavy: B1 heavy with V114A, K129E, V167M, V191A, H269Q, M295V
B4: IgG1 Fc mutant K290T, N390I, P396L (antibody)
heavy: B1 heavy with V114A, K173T, H269Q, N273I, P279L, M295V
B5: IgG1 Fc mutant V273I, K326E, L328I, P396L (antibody)
heavy: B1 heavy with V114A, V156I, K209E, L211I, H269Q, P279L, M295V
B6: IgG1 Fc mutant R301H, K340E, D399E (antibody)
heavy: B1 heavy with V114A, R184H, K223E, H269Q, D282E, M295V
B7: IgG1 Fc mutant E269K, K290N, Q311R, H433Y (antibody)
heavy: B1 heavy with V114A, E152K, K173N, Q194R, H269Q, M295V, H316Y
B8: IgG1 Fc mutant F275L, Q362H, N384K, P396L (antibody)
heavy: B1 heavy with V114A, F158L, Q245H, N267K, H269Q, P279L, M295V
B9: IgG1 Fc mutant F243L, V305I, A378D, F404S, P396L (antibody)
heavy: B1 heavy with V114A, F126L, V188I, A261D, H269Q, P279L, F287S, M295V
B10: IgG1 Fc mutant K222N, T335N, K370E, A378V, T394M (antibody)
heavy: B1 heavy with K105N, V114A, T218N, K253E, A261V, H269Q, T277M, M295V
B11: IgG1 Fc mutant K326Q, K334E, T359N, T366S (antibody)
heavy: B1 heavy with V114A, K209Q, K217E, T242N, T249S, H269Q, M295V
B12: IgG1 Fc mutant V397M, T411A, S415N (antibody)
heavy: B1 heavy with V114A, H269Q, V280M, T294A, M295V, S298N
B13: IgG1 Fc mutant K334E, E380D, G446V (antibody)
heavy: B1 heavy with V114A, K217E, E263D, H269Q, M295V, G329V
B14: IgG1 Fc mutant D221Y, M252I, A330G, A339T, T359N, V422I, H433L (antibody)
heavy: B1 heavy with D104Y, V114A, M135I, A213G, A222T, T242N, H269Q, M295V, V305I, H316L
B15: IgG1 Fc mutant P247L, I253N, K334N (antibody)
heavy: B1 heavy with V114A, P130L, I136N, K217N, H269Q, M295V
B16: IgG1 Fc mutant A378V, N390I, V422I (antibody)
heavy: B1 heavy with V114A, A261V, H269Q, N273I, M295V, V305I
B17: IgG1 Fc mutant P343S, P353L, S375I, S383N (antibody)
heavy: B1 heavy with V114A, P226S, P236L, S258I, S266N, H269Q, M295V
B18: IgG1 Fc mutant K290E, V369A, T393A, P396L (antibody)
heavy: B1 heavy with V114A, K173E, V252A, H269Q, T276A, P279L, M295V
B19: IgG1 Fc mutant D221E, D270E, V308A, Q311H, P396L, G402D (antibody)
heavy: B1 heavy with D104E, V114A, D153E, V191A, Q194H, H269Q, P279L, G285D, M295V
B20: IgG1 Fc mutant P247L, W313R, E388G (antibody)
heavy: B1 heavy with V114A, P130L, W196R, H269Q, E271G, M295V
B21: IgG1 Fc mutant V282E, V369I, L406F (antibody)
heavy: B1 heavy with V114A, V165E, V252I, H269Q, L289F, M295V
B22: IgG1 Fc mutant P244H, L358M, V379M, N384K, V397M (antibody)
heavy: B1 heavy with V114A, P127H, L241M, V262M, N267K, H269Q, V280M, M295V
B23: IgG1 Fc mutant V303I, V369F, M428L (antibody)
heavy: B1 heavy with V114A, V186I, V252F, H269Q, M295V, M311L
B24: IgG1 Fc mutant T256S, V305I, K334E, N390S (antibody)
heavy: B1 heavy with V114A, T139S, V188I, K217E, H269Q, N273S, M295V
B25: IgG1 Fc mutant K246N, Q419R, P396L (antibody)
heavy: B1 heavy with V114A, K129N, H269Q, P279L, M295V, Q302R
B26: IgG1 Fc mutant T335N, K370E, A378V, T394M, S424L (antibody)
heavy: B1 heavy with V114A, T218N, K253E, A261V, H269Q, T277M, M295V, S307L
B27: IgG1 Fc mutant K326I, S408N, P396L (antibody)
heavy: B1 heavy with V114A, K209I, H269Q, P279L, S291N, M295V
B28: IgG1 Fc mutant K246I, Q362H, K370E (antibody)
heavy: B1 heavy with V114A, K129I, Q245H, K253E, H269Q, M295V
B29: IgG1 Fc mutant K246R, S298N, I377F (antibody)
heavy: B1 heavy with V114A, K129R, S181N, I260F, H269Q, M295V
B30: IgG1 Fc mutant P247L, A330T, S440G (antibody)
heavy: B1 heavy with V114A, P130L, A213T, H269Q, M295V, S323G
B31: IgG1 Fc mutant P244A, K326I, C367R, S375I, K447T (antibody)
heavy: B1 heavy with V114A, P127A, K209I, C250R, S258I, H269Q, M295V, K330T

Biological target: soluble dimeric FcγRIIB (extracellular domain fused to hinge-CH2-CH3 of human IgG2) (human) (UniProt P31994)
Test: ELISA

Molecule “IgG1 Fc mutant D399E, M428L (from UniProt P01857 1-330) (antibody)” has a Binding to FcγRIIB (ELISA) (fold decrease) of 0.5.

Biological target: soluble monomeric FcγRIIIA (extracellular region joined to linker-AVITAG), allele not stated (human) (UniProt P08637)
Sequence (P08637 17-208): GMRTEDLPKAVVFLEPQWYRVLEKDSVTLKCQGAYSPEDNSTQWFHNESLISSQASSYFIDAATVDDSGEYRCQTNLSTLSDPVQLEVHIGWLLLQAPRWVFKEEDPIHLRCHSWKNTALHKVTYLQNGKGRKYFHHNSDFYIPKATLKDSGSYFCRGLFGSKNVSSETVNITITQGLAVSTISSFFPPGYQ
Test: ELISA

“IgG1 Fc mutant S407I (from UniProt P01857 1-330) (antibody)” and “IgG1 Fc mutant D312E, K327N, I378S (from UniProt P01857 1-330) (antibody)” are the same in Binding to FcγRIIIA (ELISA) (fold increase): 0.5 for the first, 0.5 for the second.

“IgG1 Fc mutant V348M; K334N; F275I; Y202M; K147T (from UniProt P01857 1-330) (antibody)” and “IgG1 Fc mutant S383N; N384K; T256N; V262L; K218E; R214I; K205E; F149Y; K133M (from UniProt P01857 1-330) (antibody)” are the same in Binding to FcγRIIIA (ELISA) (fold increase): 0.5 for the first, 0.5 for the second.

“IgG1 Fc mutant H310Y; T289A; G337E (from UniProt P01857 1-330) (antibody)” and “IgG1 Fc mutant S298N, S407R (from UniProt P01857 1-330) (antibody)” are the same in Binding to FcγRIIIA (ELISA) (fold increase): 0.5 for the first, 0.5 for the second.

Work on “IgG1 Fc mutant D399E, M428L (from UniProt P01857 1-330) (antibody)” yielded a Binding to FcγRIIIA (ELISA) (fold decrease) of 0.5.

Biological target: T2, soluble monomeric FcγRIIIA (extracellular region joined to linker-AVITAG), allele not stated (human, UniProt P08637 17-208)
T2 construct: extracellular domain; also called FcRIIIA; CD16A; not shown: linker-AVITAG
T2 sequence (P08637 17-208): as above
Test: ELISA

First: B1
Second: B4
The “Binding to FcγRIIIA (ELISA)” value of the first is lower: 1.5 fold increase for the first, 2.8 fold increase for the second.

Going from B5 to B8, the “Binding to FcγRIIIA (ELISA)” value rises from 1.3 fold increase to 2.2 fold increase.

Compared with B9, B10 is lower in “Binding to FcγRIIIA (ELISA)” value: 1.6 fold increase for the first, 1 fold increase for the second.

First: B11
Second: B12
The “Binding to FcγRIIIA (ELISA)” value of the first is higher: 1.5 fold increase for the first, 0.25 fold increase for the second.

First: B14
Second: B15
The “Binding to FcγRIIIA (ELISA)” value of the first is lower: 2.5 fold increase for the first, 3 fold increase for the second.

B16 and B17 are the same in “Binding to FcγRIIIA (ELISA)” value: 0.5 fold increase for the first, 0.5 fold increase for the second.

First: B18
Second: B19
The “Binding to FcγRIIIA (ELISA)” value of the first is lower: 1.3 fold increase for the first, 3.6 fold increase for the second.

First: B20
Second: B21
The “Binding to FcγRIIIA (ELISA)” value of the first is higher: 1.5 fold increase for the first, 0.5 fold increase for the second.

Compared with B22, B24 is lower in “Binding to FcγRIIIA (ELISA)” value: 1.75 fold increase for the first, 1.5 fold increase for the second.

First: B25
Second: B26
The “Binding to FcγRIIIA (ELISA)” value of the first is higher: 1.1 fold increase for the first, 0.5 fold increase for the second.

First: B27
Second: B29
The “Binding to FcγRIIIA (ELISA)” value of the first is higher: 4 fold increase for the first, 1 fold increase for the second.

With B30 the “Binding to FcγRIIIA (ELISA)” value was 0.75 fold increase.

First: B2
Second: B6
The “Binding to FcγRIIIA (ELISA)” value of the first is lower: 0.25 fold decrease for the first, 0.5 fold decrease for the second.

B3: no binding.
B7: no binding.
B13: no binding.
B23: no binding.
B28: no binding.

Biological target: T1, soluble dimeric FcγRIIB (extracellular …)
Test: ELISA

First: B1
Second: B2
The “Binding to FcγRIIB (ELISA)” value of the first is lower: 6 fold increase for the first, 10 fold increase for the second.

Going from B4 to B5, the “Binding to FcγRIIB (ELISA)” value rises from 6.1 fold increase to 10.8 fold increase.

Going from B8 to B9, the “Binding to FcγRIIB (ELISA)” value rises from 3.7 fold increase to 5.4 fold increase.

Going from B31 to B10, the “Binding to FcγRIIB (ELISA)” value rises from 3 fold increase to 7 fold increase.

B11 and B12 are the same in “Binding to FcγRIIB (ELISA)” value: 5 fold increase for the first, 5 fold increase for the second.

Compared with B14, B15 is lower in “Binding to FcγRIIB (ELISA)” value: 6 fold increase for the first, 2.5 fold increase for the second.

First: B16
Second: B17
The “Binding to FcγRIIB (ELISA)” value of the first is lower: 5 fold increase for the first, 6 fold increase for the second.

Compared with B18, B19 is lower in “Binding to FcγRIIB (ELISA)” value: 6.7 fold increase for the first, 0.1 fold increase for the second.

Going from B20 to B21, the “Binding to FcγRIIB (ELISA)” value rises from 1 fold increase to 7 fold increase.

First: B22
Second: B25
The “Binding to FcγRIIB (ELISA)” value of the first is lower: 1.5 fold increase for the first, 4.8 fold increase for the second.

Going from B27 to B29, the “Binding to FcγRIIB (ELISA)” value falls from 9.3 fold increase to 5 fold increase.

B3: no binding.
B7: no binding.
B13: no binding.
B23: no binding.

Going from B6 to B28, the “Binding to FcγRIIB (ELISA)” value rises from 0.25 fold decrease to 0.5 fold decrease.

B30 was tested, and the “Binding to FcγRIIB (ELISA)” value was 0.25 fold decrease.

Reference: US20090098124A1 (MacroGenics, published 2009)
